Results taken from PMC5342555, “ATAD2 is an epigenetic reader of newly synthesized histone marks during DNA replication” (Oncotarget, 2016).
Residue numbers refer to the chain shown, from its start. In names and notes the source's numbering stands.

B1: WT: TagGFP-tagged WT ATAD2 expressed in MCF7 cells (protein)
chain: MVVLRSSLELHNHSAASATGSLDLSSDFLSLEHIGRRRLRSAGAAQKKPAATTAKAGDGSSVKEVETYHRTRALRSLRKDAQNSSDSSFEKNVEITEQLANGRHFTRQLARQQADKKKEEHREDKVIPVTRSLRARNIVQSTEHLHEDNGDVEVRRSCRIRSRYSGVNQSMLFDKLITNTAEAVLQKMDDMKKMRRQRMRELEDLGVFNETEESNLNMYTRGKQKDIQRTDEETTDNQEGSVESSEEGEDQEHEDDGEDEDDEDDDDDDDDDDDDDDEDDEDEEDGEEENQKRYYLRQRKATVYYQAPLEKPRHQRKPNIFYSGPASPARPRYRLSSAGPRSPYCKRMNRRRHAIHSSDSTSSSSSEDEQHFERRRKRSRNRAINRCLPLNFRKDELKGIYKDRMKIGASLADVDPMQLDSSVRFDSVGGLSNHIAALKEMVVFPLLYPEVFEKFKIQPPRGCLFYGPPGTGKTLVARALANECSQGDKRVAFFMRKGADCLSKWVGESERQLRLLFDQAYQMRPSIIFFDEIDGLAPVRSSRQDQIHSSIVSTLLALMDGLDSRGEIVVIGATNRLDSIDPALRRPGRFDREFLFSLPDKEARKEILKIHTRDWNPKPLDTFLEELAENCVGYCGADIKSICAEAALCALRRRYPQIYTTSEKLQLDLSSINISAKDFEVAMQKMIPASQRAVTSPGQALSTVVKPLLQNTVDKILEALQRVFPHAEFRTNKTLDSDISCPLLESDLAYSDDDVPSVYENGLSQKSSHKAKDNFNFLHLNRNACYQPMSFRPRILIVGEPGFGQGSHLAPAVIHALEKFTVYTLDIPVLFGVSTTSPEETCAQVIREAKRTAPSIVYVPHIHVWWEIVGPTLKATFTTLLQNIPSFAPVLLLATSDKPHSALPEEVQELFIRDYGEIFNVQLPDKEERTKFFEDLILKQAAKPPISKKKAVLQALEVLPVAPPPEPRSLTAEEVKRLEEQEEDTFRELRIFLRNVTHRLAIDKRFRVFTKPVDPDEVPDYVTVIKQPMDLSSVISKIDLHKYLTVKDYLRDIDLICSNALEYNPDRDPGDRLIRHRACALRDTAYAIIKEELDEDFEQLCEEIQESRKKRGCSSSKYAPSYYHVMPKQNSTLVGDKRSDPEQNEKLKTPSTPVACSTPAQLKRKIRKKSNWYLGTIKKRRKISQAKDDSQNAIDHKIESDTEETQDTSVDHNETGNTGESSVEENEKQQNASESKLELRNNSNTCNIENELEDSRKTTACTELRDKIACNGDASSSQIIHISDENEGKEMCVLRMTRARRSQVEQQQLITVEKALAILSQPTPSLVVDHERLKNLLKTVVKKSQNYNIFQLENLYAVISQCIYRHRKDHDKTSLIQKMEQEVENFSCSR
modifications: left off: tagGFP, end not stated, kept
notes: TagGFP-tagged WT ATAD2 expressed in MCF7 cells
B2: ATPase mut: TagGFP-tagged ATPase mutant ATAD2 (K473T, E532Q) expressed in MCF7 cells (protein)
chain: B1 chain with K473T, E532Q
modifications: left off: tagGFP, end not stated, kept
notes: TagGFP-tagged ATPase mutant ATAD2 (K473T, E532Q) expressed in MCF7 cells
B3: BD mut: TagGFP-tagged BD mutant ATAD2 (V1013A, Y1021A, Y1063A, I1074A) expressed in MCF7 cells (protein, UniProt Q6PL18 1-1390, looked up, variant V1013A Y1021A Y1063A I1074A)
ATPase family AAA …: B1 chain with V1013A, Y1021A, Y1063A, I1074A
modifications: TagGFP tag
notes: TagGFP-tagged BD mutant ATAD2 (V1013A, Y1021A, Y1063A, I1074A) expressed in MCF7 cells

system: MCF7 cells; assay: Fluorescence recovery after photobleaching (FRAP); assay type: cell-based; details: TagGFP-tagged ATAD2 in MCF7, FRAP, 20 images; mean ± SEM
Experimental: Immunofluorescence of cells were saved for whole cell extract and the rest was subjected for subsequent fractionation. Whole cell extract
Cells were grown on Matrigel-coated coverslips and was prepared by incubating cells in ice-cold RIPA buffer fixed in 4 % formaldehyde in PBS for 15 min at RT or in (25 mM Tris·HCl pH 7.6, 150 mM NaCl, 1 % NP-40, 1 100 % methanol for 7 min at -20 °C. After removing the % sodium deoxycholate, 0.1 % SDS) supplemented with residual FA or methanol by washing in PBS cells were protease inhibitor cocktail (Roche) for 10 min on ice and permeabilized in blocking solution (10 % goat serum sonicated at medium power, 0.5 intervals in BIORUPTOR and 0.3 % Triton X-100 in PBS) for 10 min at RT and for 3 min at 4 °C. Soluble lysate was recovered by incubated with primary antibodies in blocking solution. removing insoluble fractions after centrifugation at 20000 Following the removal of unbound antibodies by washing x g for 10 min 5 to 20 μg of lysates were used for SDS gel in PBS cells were incubated with secondary antibodies electrophoresis and Western blot. conjugated with Alexa Fluor 488, 555 or 647 (Invitrogen), washed and mounted on slides in presence of DAPI for Fluorescence recovery after photobleaching visualization of nucleus. Images were acquired using an (FRAP) inverted Zeiss LSM700 confocal microscope using a 488 nm Diode-Pumped Solid State Laser with a 63X, 1.3 N.A. FRAP experiment was performed as previously oil-immersion objective. For EdU labelling cells were described with minor modifications. […]
and fixed in 2 % FA for 10 min at RT. […] The image series were imported in Fiji and 100 % MeOH for 10 min at – 20 °C and incubated in average fluorescence was in the bleached region (F(t)ROI), stain buffer with 5 % normal goat serum for 10 min at the total cell nucleus (F(t)total) and a background (F(t)BG) RT for blocking. Then indirect staining was performed were determined. The relative fluorescence intensity

Row | Molecule | half recovery time (recovery t1/2) [s]
1 | B1 | 17.740
2 | B2 | 2.514
3 | B3 | 7.951

system: MCF7 cells; assay: EdU incorporation (DNA replication) by flow cytometry; assay type: cell-based; details: MCF7 overexpressing tagGFP-tagged ATAD2, gated by tagGFP; mean ± SEM, n = 3 independent experiments
Experimental: informed consent was obtained (Indivumed, Hamburg, by incubating cells with primary antibodies for 1 h at Germany; Asterand, Detroit USA; Provitro Berlin, RT followed by labelling with secondary antibodies Germany) of different indications. Immunohistochemistry conjugated with Alexa488 or Alexa647 for 30 min at was performed using EnVision System-HRP (DAB) from RT in dark. For analysis of TagGFP-ATAD2 expressing Dako (K4006 and K4010). Prior to immunostaining the cells GFP was stained by GFP antibody to enhance the slides were deparaffinized and rehydrated in xylene and fluorescence signal. DNA was stained by DAPI at 1 μg/ graded ethanol to distilled water. Antigen was retrieved by ml for 10 min at RT. For EdU (5-ethynyl-2'-deoxyuridine) incubating the tissue in boiling Target Retrieval Solution labelling cells were incubated in 10 μM EdU for 2h at 37 pH 6.0 (Dako S2031) for 40 min and letting them cool °C prior to fixation and staining was carried out according […]
Peroxidase-Block for 15 min at RT the slides were washed Fluor® 647 Flow Cytometry Assay Kit, ThermoFisher). twice in washing buffer (PBS with 0.05 % Tween 20) and Cells were analyzed by flow cytometry using a BD LSR incubated with primary antibodies in Antibody-Diluent II. All imaging and quantifications were performed using […]
(Dako S2022) for 90 min at RT. […]
Immunofluorescence of cells were saved for whole cell extract and the rest was subjected for subsequent fractionation. Whole cell extract […]
and fixed in 2 % FA for 10 min at RT. […] The image series were imported in Fiji and 100 % MeOH for 10 min at – 20 °C and incubated in average fluorescence was in the bleached region (F(t)ROI), […]

Row | Molecule | EdU incorporation (normalized to control)
4 | B1 | 0.75 ± 0.03
5 | B2 | 0.38 ± 0.09
6 | B3 | 0.5 ± 0.10
